The record followed here is patent US20030129724A1 (Harvard, published 2003).

T1: Recombinant FLAG-epitope tagged HDAC6 (human, UniProt Q9UBN7 1-1215)
T1 construct: Full length ORF with C-terminal FLAG tag in pBJ5, expressed in TAg Jurkat cells; also called HDAC6-FLAG; HD6
T1 sequence: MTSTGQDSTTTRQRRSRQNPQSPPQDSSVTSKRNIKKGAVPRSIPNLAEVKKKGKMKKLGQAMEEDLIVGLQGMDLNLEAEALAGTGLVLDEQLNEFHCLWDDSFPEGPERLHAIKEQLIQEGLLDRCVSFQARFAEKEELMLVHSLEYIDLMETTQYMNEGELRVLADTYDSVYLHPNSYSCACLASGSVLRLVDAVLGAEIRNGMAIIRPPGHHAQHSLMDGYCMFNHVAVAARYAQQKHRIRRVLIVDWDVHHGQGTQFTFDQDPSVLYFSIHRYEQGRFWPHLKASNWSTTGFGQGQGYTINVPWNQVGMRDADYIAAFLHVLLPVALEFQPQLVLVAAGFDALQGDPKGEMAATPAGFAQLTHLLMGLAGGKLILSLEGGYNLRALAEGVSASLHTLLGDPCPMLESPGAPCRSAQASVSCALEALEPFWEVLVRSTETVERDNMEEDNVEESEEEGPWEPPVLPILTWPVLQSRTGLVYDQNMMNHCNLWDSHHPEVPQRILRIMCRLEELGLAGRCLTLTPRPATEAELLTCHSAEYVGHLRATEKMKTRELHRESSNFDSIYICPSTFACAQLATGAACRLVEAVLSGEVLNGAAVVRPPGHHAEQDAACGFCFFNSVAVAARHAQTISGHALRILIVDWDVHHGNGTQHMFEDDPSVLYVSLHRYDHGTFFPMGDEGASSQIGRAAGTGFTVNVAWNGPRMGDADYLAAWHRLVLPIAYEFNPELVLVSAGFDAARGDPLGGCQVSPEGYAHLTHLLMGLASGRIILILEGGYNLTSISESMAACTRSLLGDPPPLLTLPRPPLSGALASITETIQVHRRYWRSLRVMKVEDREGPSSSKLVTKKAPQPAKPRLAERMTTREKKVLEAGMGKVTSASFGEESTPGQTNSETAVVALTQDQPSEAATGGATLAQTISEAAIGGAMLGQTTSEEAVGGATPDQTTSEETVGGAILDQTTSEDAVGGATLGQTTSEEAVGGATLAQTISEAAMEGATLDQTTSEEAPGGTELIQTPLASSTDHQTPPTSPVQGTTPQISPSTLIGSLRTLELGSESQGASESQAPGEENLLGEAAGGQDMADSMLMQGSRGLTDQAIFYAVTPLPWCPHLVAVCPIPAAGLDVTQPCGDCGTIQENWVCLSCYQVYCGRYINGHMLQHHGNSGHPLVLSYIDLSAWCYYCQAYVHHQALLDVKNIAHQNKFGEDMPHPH

T2: HDAC3 from calyculin A-treated cells, O15379
T2 chain: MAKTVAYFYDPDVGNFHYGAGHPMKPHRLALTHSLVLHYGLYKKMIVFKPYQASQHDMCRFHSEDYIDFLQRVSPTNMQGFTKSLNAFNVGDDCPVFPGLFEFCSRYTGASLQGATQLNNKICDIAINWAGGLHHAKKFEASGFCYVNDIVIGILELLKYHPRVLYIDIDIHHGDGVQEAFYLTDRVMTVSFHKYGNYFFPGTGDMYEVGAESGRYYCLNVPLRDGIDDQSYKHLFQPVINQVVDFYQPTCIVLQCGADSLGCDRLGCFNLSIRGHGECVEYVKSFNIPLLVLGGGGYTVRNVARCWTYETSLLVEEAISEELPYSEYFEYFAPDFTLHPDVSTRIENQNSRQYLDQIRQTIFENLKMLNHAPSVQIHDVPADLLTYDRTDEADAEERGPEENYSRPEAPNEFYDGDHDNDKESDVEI

T3: mSin3A (UniProt Q96ST3 1-1273)
T3 construct: Endogenous protein detected by Western blot in immunoprecipitates; also called co-repressor mSin3A
T3 sequence (looked up): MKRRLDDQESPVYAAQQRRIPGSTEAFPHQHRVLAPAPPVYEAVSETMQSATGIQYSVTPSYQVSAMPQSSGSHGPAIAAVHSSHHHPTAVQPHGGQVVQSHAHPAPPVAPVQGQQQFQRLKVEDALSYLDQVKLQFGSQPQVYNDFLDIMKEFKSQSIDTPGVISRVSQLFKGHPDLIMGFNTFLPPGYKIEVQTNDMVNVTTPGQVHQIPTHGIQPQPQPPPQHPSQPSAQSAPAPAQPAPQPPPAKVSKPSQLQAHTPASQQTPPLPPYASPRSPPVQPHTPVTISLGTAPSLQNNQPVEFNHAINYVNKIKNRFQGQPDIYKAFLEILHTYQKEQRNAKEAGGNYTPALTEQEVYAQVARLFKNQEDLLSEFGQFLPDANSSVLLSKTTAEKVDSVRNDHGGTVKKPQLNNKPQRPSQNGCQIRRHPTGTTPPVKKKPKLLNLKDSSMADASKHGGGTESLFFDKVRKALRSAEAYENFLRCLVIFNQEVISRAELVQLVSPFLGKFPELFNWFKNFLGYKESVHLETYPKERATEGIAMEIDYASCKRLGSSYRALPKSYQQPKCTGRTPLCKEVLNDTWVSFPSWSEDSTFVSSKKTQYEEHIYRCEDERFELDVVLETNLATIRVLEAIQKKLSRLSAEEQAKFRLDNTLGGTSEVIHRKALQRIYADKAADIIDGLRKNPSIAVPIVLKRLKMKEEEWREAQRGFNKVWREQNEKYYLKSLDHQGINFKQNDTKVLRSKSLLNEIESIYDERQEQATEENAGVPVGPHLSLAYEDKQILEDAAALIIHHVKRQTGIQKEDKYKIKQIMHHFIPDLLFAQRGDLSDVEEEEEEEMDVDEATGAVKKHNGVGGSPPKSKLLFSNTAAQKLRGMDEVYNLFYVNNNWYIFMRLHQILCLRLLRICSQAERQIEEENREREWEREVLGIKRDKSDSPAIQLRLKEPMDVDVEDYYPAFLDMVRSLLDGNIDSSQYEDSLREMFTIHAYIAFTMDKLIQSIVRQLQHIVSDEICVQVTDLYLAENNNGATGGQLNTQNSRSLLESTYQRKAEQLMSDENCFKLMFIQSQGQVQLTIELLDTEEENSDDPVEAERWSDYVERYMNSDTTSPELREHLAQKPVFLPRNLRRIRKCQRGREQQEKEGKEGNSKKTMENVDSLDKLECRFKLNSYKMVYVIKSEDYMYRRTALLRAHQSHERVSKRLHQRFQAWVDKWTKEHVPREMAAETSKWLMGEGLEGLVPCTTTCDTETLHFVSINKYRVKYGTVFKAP

B1: MTA (other, UniProt Q13330 1-715, looked up)
chain: MAANMYRVGDYVYFENSSSNPYLIRRIEELNKTANGNVEAKVVCFYRRRDISSTLIALADKHATLSVCYKAGPGADNGEEGEIEEEMENPEMVDLPEKLKHQLRHRELFLSRQLESLPATHIRGKCSVTLLNETESLKSYLEREDFFFYSLVYDPQQKTLLADKGEIRVGNRYQADITDLLKEGEEDGRDQSRLETQVWEAHNPLTDKQIDQFLVVARSVGTFARALDCSSSVRQPSLHMSAAAASRDITLFHAMDTLHKNIYDISKAISALVPQGGPVLCRDEMEEWSASEANLFEEALEKYGKDFTDIQQDFLPWKSLTSIIEYYYMWKTTDRYVQQKRLKAAEAESKLKQVYIPNYNKPNPNQISVNNVKAGVVNGTGAPGQSPGAGRACESCYTTQSYQWYSWGPPNMQCRLCASCWTYWKKYGGLKMPTRLDGERPGPNRSNMSPHGLPARSSGSPKFAMKTRQAFYLHTTKLTRIARRLCREILRPWHAARHPYLPINSAAIKAECTARLPEASQSPLVLKQAVRKPLEAVLRYLETHPRPPKPDPVKSVSSVLSSLTPAKVAPVINNGSPTILGKRSYEQHNGVDGNMKKRLLMPSRGLANHGQARHMGPSRNLLLNGKSYPTKVRLIRGGSLPPVKRRRMNWIDAPDDVFYMATEETRKIRKLLSSSETKRAARRPYKPIALRQSQALPPRPPPPAPVNDEPIVIED
notes: also called metastasis-associated factors (MTA)
B2: Recombinant FLAG-epitope tagged HDAC4 (enzyme, not shown: small tags and cut ends)
chain: MSSQSHPDGLSGRDQPVELLNPARVNHMPSTVDVATALPLQVAPSAVPMDLRLDHQFSLPVAEPALREQQLQQELLALKQKQQIQRQILIAEFQRQHEQLSRQHEAQLHEHIKQQQEMLAMKHQQELLEHQRKLERHRQEQELEKQHREQKLQQLKNKEKGKESAVASTEVKMKLQEFVLNKKKALAHRNLNHCISSDPRYWYGKTQHSSLDQSSPPQSGVSTSYNHPVLGMYDAKDDFPLRKTASEPNLKLRSRLKQKVAERRSSPLLRRKDGPVVTALKKRPLDVTDSACSSAPGSGPSSPNNSSGSVSAENGIAPAVPSIPAETSLAHRLVAREGSAAPLPLYTSPSLPNITLGLPATGPSAGTAGQQDTERLTLPALQQRLSLFPGTHLTPYLSTSPLERDGGAAHSPLLQHMVLLEQPPAQAPLVTGLGALPLHAQSLVGADRVSPSIHKLRQHRPLGRTQSAPLPQNAQALQHLVIQQQHQQFLEKHKQQFQQQQLQMNKIIPKPSEPARQPESHPEETEEELREHQALLDEPYLDRLPGQKEAHAQAGVQVKQEPIESDEEEAEPPREVEPGQRQPSEQELLFRQQALLLEQQRIHQLRNYQASMEAAGIPVSFGGHRPLSRAQSSPASATFPVSVQEPPTKPRFTTGLVYDTLMLKHQCTCGSSSSHPEHAGRIQSIWSRLQETGLRGKCECIRGRKATLEELQTVHSEAHTLLYGTNPLNRQKLDSKKLLGSLASVFVRLPCGGVGVDSDTIWNEVHSAGAARLAVGCVVELVFKVATGELKNGFAVVRPPGHHAEESTPMGFCYFNSVAVAAKLLQQRLSVSKILIVDWDVHHGNGTQQAFYSDPSVLYMSLHRYDDGNFFPGSGAPDEVGTGPGVGFNVNMAFTGGLDPPMGDAEYLAAFRTVVMPIASEFAPDVVLVSSGFDAVEGHPTPLGGYNLSARCFGYLTKQLMGLAGGRIVLALEGGHDLTAICDASEACVSALLGNELDPLPEKVLQQRPNANAVRSMEKVMEIHSKYWRCLQRTTSTAGRSLIEAQTCENEEAETVTAMASLSVGVKPAEKRPDEEPMEEEPPL
notes: Complete HDAC4 ORF with C-terminal FLAG tag in pBJ5, transiently expressed in TAg Jurkat cells (untreated) and immunoprecipitated with anti-FLAG agarose; also called HDAC4-FLAG; HDAC4-F

For series [1], the target named is B2. The series can be described thus: anti-FLAG co-immunoprecipitation from TAg Jurkat cells, Western blot. Background: In western blotting, separated proteins are transferred to a membrane and probed.
Series [2] has as its target T1, Recombinant FLAG-epitope tagged HDAC6. Described as above.
For series [3], the target named is T2, HDAC3 from calyculin A-treated cells, ….
In the next series the target is T4, CHD4 (UniProt Q14839 1-1912, limits assumed).
T4 construct: Endogenous protein detected by Western blot in immunoprecipitates; also called CHD chromodomain protein
T4 sequence (Q14839 whole entry): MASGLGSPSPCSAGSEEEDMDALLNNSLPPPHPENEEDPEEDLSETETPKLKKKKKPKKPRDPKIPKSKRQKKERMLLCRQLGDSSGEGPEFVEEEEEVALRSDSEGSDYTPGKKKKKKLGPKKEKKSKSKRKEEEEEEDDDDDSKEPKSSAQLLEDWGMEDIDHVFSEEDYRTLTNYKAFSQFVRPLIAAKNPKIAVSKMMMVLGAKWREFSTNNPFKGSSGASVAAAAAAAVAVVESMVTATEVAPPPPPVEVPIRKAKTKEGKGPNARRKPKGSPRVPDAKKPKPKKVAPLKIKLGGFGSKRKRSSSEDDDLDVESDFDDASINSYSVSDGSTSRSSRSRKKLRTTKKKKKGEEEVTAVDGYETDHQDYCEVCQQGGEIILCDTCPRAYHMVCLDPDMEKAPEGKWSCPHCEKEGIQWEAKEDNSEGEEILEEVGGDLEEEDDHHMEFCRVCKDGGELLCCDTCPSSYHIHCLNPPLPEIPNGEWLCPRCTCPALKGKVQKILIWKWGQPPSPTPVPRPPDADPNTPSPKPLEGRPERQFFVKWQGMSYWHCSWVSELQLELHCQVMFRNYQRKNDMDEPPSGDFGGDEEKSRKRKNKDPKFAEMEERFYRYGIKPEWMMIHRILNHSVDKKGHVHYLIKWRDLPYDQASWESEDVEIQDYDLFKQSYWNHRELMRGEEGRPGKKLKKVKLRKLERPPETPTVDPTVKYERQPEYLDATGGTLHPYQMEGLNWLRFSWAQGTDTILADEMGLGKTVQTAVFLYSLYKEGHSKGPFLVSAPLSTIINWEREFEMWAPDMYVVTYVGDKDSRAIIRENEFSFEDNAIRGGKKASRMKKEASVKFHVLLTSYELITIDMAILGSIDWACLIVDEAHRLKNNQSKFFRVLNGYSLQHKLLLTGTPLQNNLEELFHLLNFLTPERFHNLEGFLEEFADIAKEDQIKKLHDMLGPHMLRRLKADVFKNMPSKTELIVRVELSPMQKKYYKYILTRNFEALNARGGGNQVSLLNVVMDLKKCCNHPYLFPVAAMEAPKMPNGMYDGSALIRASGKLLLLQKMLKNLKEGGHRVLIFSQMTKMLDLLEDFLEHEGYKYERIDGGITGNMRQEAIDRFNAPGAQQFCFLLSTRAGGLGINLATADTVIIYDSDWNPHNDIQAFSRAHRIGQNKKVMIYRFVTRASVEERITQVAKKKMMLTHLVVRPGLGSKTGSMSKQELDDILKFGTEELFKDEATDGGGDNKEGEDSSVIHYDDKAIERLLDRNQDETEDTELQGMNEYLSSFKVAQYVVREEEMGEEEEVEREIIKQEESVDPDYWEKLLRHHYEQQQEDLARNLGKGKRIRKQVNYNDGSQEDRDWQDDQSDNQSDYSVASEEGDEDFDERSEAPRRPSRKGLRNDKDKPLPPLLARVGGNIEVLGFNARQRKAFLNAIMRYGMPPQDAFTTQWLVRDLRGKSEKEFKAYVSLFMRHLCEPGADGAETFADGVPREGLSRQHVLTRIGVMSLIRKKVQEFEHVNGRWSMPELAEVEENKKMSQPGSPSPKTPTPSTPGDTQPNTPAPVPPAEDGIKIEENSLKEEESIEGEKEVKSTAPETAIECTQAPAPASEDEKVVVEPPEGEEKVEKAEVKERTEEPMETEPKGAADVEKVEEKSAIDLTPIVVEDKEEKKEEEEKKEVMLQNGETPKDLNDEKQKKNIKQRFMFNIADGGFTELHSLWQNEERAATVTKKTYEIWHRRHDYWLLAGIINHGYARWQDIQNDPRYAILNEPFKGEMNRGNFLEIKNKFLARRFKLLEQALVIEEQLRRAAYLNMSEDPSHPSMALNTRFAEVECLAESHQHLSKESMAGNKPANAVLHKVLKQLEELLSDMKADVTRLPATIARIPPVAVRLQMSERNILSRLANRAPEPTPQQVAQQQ
The series can be described thus: anti-FLAG co-immunoprecipitation from TAg Jurkat cells, Western blot.

A further series has as its target T3, mSin3A. The series can be described thus: anti-FLAG co-immunoprecipitation from TAg Jurkat cells, Western blot; an unexplained band of lower molecular weight was seen in the mSin3A blot. An excerpt:
Immunoprecipitates were probed with -CHD4, -mSin3A, -MTA, -RbAp48, -HDAC1, and -HDAC3 antibodies (FIG. 5B).

As to B1, the binding result in series [1] and in series [2] was “no binding” in each case.
On to B2, for which the “immunoprecipitated HDAC activity (release of 3H-acetic acid)” value in series [3] is “dramatic reduction in immunoprecipitated HDAC activity”. Moreover, the binding result with CHD4 and with mSin3A was “no binding” in each case.
